Experimental data taken from the Human Domainome abundance scans (Beltran et al. 2025).

B1: Ventral anterior homeobox 1, residues 102 to 157; numbered along this chain, Q5SQQ9 (parent)
chain: RTRTSFTAEQLYRLEMEFQRCQYVVGRERTELARQLNLSETQVKVWFQNRRTKQKK

Variants of: B1
Experiment: abundance fitness (aPCA) (normalised: wild type 0, dead -1); higher = more abundant; growth selection in yeast, the domain comes from the species named
Details: Homo sapiens

Abundance fitness, by site and new letter:
F18: M -0.674, Y -0.124, L -0.927, W -0.181, I -0.689, V -0.887, C -0.741
V24: M -0.16, N -0.25, P -0.167, H -0.307, L 0.059, R -0.243, C 0.12, F -0.408, W -0.416, Y -0.421, E -0.367, G -0.436, S -0.09, T -0.074, A -0.12, D -0.347, I -0.086, Q -0.559
A33: R -0.992, D -0.938, Q -0.989, P -0.997, N -0.897, E -0.905, V -0.786, T -0.557, G -0.375, S -0.115, W -0.483, C -0.295, H -0.925, L -0.693, Y -0.692
T30: I -0.211, D -0.468, N -0.097, A -0.102, W -0.117, G -0.215, H -0.261, L -0.427, Q -0.329, E 0.018, P -0.677, R -0.429, M -0.225, K -0.19, V -0.064
E15: H -1.08, R -0.787, D -0.379, S -0.766, M -0.982, G -0.823, F -0.533, L -0.44, C -0.803, A -0.876, V -0.847, W -0.71, P -1.07, N -0.564, Q -1.01
G26: S -0.151, D -0.153, F -0.278, T -0.453, N -0.318, W -0.892, K -0.15, C -0.547, A -0.155, Y -0.342, Q -0.23, E -0.249, P -0.208, H -0.413, V -0.577, I -0.63, M -0.351, L -0.297
R34: A 0.179, I -0.325, C -0.395, V -0.074, P -0.907, Y -0.655, K -0.197, E -0.235, S -0.061, D -0.203, W -0.42, L -0.273, Q -0.361, M -0.256
Q19: L -0.044, Y -0.603, G -0.133, A -0.002, F -0.33, I -0.165, N -0.115, S -0.063, D -0.161, R -0.316, H -0.274, V -0.153, E -0.039, M -0.133, T -0.046, W -0.213, P -0.732, C -0.225
L14: F -0.789, I -0.54, A -0.708, S -0.906, T -0.843, C -0.518, M -0.368, W -0.747, V -0.619
E31: T -0.243, F -0.795, K -0.592, N 0.028, C -0.683, V -0.315, I -0.399, G -0.454, P -0.662, L -0.5, R -0.657, H -0.468, D -0.234, W -0.721, Y -1.04, Q -0.347, S -0.386
E28: A -0.318, R -0.596, S -0.338, C -0.412, W -0.483, T -0.247, Q -0.394, L -0.369, N -0.459, I -0.657, K -0.78, M -0.446, H -0.318, V -0.419, G -0.39, Y -0.661, P -0.171, F -0.513, D -0.077
Q22: P -0.133, H -0.251, L -0.437, D -0.081, Y -0.641, E 0.024, N -0.285, I -0.38, R -0.32, T -0.17, G 0.033, K -0.103, F -0.585, S -0.087, A -0.033, V -0.324, W -0.383, M -0.249
Y23: N 0.069, C -0.145, G -0.21, W -0.527, I -0.117, Q 0.132, D -0.164, S 0.03, A 0.082, F -0.088, K 0.051, E 0.012, H 0.04, V -0.045, L 0.055, M 0.181
V25: P -0.29, G 0.003, C 0.114, Q 0.121, R -0.16, K -0.18, H -0.011, M -0.396, E 0.204, A 0.042, N -0.326, F -0.073, I -0.226, W -0.633, Y -0.377, T -0.087, S -0.071
C21: F -0.21, S -0.013, W -0.635, P -0.231, G -0.16, E -0.101, H -0.215, A -0.166, Q -0.37, M -0.434, R -0.229, K -0.169, L -0.377, V -0.054, Y -0.404, T -0.019, D 0.16
R27: S 0.18, C -0.026, T 0.013, A 0.07, H -0.245, E 0.167, V -0.01, Q 0.009, F -0.141, N 0.156, G 0.003, L -0.049, P 0.008, K -0.045, Y -0.108, I 0.19
R20: M -0.001, G -0.409, F -0.47, K -0.428, V -0.162, L -0.223, T -0.305, E -0.261, S -0.04, N 0.251, I -0.386, W -0.632, D 0.149, C -0.303, Q -0.226, Y -0.436
L32: V -0.542, K -0.641, W -1.04, M -0.314, G -1.21, Q -0.959, C -0.777, A -0.791, R -0.826
E17: V -0.296, H -0.044, I -0.544, S -0.294, L -0.558, T -0.297, C -0.209, R -0.421, D -0.65, Q -0.296, K -0.604, W -0.359, F -0.031, M -0.281, G -0.679
R13: Y -0.316
M16: F -0.285, G -0.109, R -0.233, K -0.301, W -0.291, I -0.295, P -1.12, T -0.076, N -0.407, C -0.055, Q 0.008, D 0.075, V -0.09, Y -0.173, A -0.043, S -0.027
Q35: Y -0.414, V -0.265, T -0.205, A 0.052, M -0.087, L -0.135, G -0.182, I -0.236, C -0.08, N -0.206, H -0.167, K 0.093, F -0.292, S 0.037, R -0.028, D -0.005, W -0.304, E -0.032
L36: H -0.569, M -0.184, D -0.643, A -0.601, N -0.935, E -0.983, C -0.165, F -0.741, G -0.916, K -1.18
